From US20240084003A1 (SIMCERE ZAIMING PHARMACEUTICAL, published 2024) come the findings set out here.

Residue numbers refer to the chain shown, from its start.

T1: monkey CD22 (full length, on HEK293T cells) (monkey)
T1 construct: NCBI XP_014979161.2; also called HEK293T-monkey CD22; HEK293T cells overexpressing monkey CD22
T1 chain: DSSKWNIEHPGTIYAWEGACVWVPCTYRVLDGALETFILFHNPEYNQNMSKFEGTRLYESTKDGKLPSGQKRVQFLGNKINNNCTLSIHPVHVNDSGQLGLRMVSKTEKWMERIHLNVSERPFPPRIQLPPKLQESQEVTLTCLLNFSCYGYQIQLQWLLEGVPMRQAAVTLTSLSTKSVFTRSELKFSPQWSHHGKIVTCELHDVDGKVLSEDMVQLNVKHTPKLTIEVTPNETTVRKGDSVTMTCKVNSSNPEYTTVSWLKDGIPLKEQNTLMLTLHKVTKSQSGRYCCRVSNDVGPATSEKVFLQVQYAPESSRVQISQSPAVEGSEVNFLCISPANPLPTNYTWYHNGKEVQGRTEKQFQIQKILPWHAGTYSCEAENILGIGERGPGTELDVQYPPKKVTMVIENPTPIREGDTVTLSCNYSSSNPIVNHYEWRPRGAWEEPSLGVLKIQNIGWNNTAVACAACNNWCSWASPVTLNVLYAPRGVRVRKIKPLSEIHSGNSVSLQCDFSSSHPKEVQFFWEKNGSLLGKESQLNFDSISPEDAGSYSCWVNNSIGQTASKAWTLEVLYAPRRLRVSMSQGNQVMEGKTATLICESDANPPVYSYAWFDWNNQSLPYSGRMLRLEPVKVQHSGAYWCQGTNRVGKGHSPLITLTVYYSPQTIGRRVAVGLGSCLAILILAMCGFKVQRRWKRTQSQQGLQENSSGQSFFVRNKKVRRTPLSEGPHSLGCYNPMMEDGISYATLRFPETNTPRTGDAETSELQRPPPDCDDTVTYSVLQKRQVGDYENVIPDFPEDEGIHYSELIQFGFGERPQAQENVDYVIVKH

B1: F1.280.1 (antibody, human IgG1, kappa, V domains shown)
VH: QIQLVQSGPELKKPGETVKISCKASGYTFTTYGMSWVKQTPGKGLTWMGWINTDSGVPTYADDFKRRFAFSLEASATTAYLQINNLKNEDTATYFCARGGPDYWGQGTTLTVSS
VL: DILLTQSPATLSVTPGETVSLSCRASQSIYKNLHWYHQKSHRSPRLLIKYASDSISGIPSRFTGSGSGTNFTLSINSVKPEDEGIYYCLQGYIVPLTFGAGTKLELKR
notes: Human-murine chimeric IgG1, kappa
B2: F2.343.16 (antibody, human IgG1, lambda, V domains shown)
VH: QVQLKQSGPGLVQPSQSLSITCTVSGFSLTGYGVQWVRQSPGKGLEWLGVIWGGGGTDYNAAFISRLNIIKDNSKSQVFFKMNSLQADDTAIYYCARYSKYGHFDVWGTGTAVTVSS
VL: QAVVTQESALTTSPGETVTLTCRSSTGAVTTSNYANWVQEKPDHLFTGLIGGTYNRVPGVPARFSGSLIGDKAALTITGAQTEDEAIYFCALWYSNHFWVFGGGTKLTVLG
notes: Human-murine chimeric IgG1, lambda
B3: F2.70.2 (antibody, human IgG1, lambda, V domains shown)
VH: EVQLVESGGGLVKPGGSLKLSCAASGFTFSDYGMNWFRQAPEKGLEWVAYISRGSHTIYYADTVKGRFTISRDNAKNTLFLQMTSLRSNDTAMYYCVRMAGYYAMDYWGQGTSVTVSS
VL: QLVLTQSSSASFSLGASAKLTCTLSSQHSSYIIEWYQQQPLKPPKYVMELKKDGSHSTGDGIPDRFSGSSSGADRYLSISNIQPEDEAIYICGVGDTIKEQFVYVFGGGTKVTVLG
notes: as for B2
B4: F2.180.16 (antibody, human IgG1, lambda, V domains shown)
VH: EVKLVESGGGLVLPGGSLKISCAASGFTFSDYYMYWIRQTPDKRLEWVAYISNTGYSTFYPDSVKGRFTVSRDNAKNTLYLQMSRLQSEDTAMYYCARHGILYAMDYWGQGTSVTVSS
VL: B3 VL with L2P, H28Y, S30T, I32T, E34G, K52H, H56R, S57H, I89T, V103M
notes: as for B2
B5: F2.104.10 (antibody, human IgG1, lambda, V domains shown)
VH: B3 VH with L11F, K76E, V114L
VL: B3 VL with L50V, P84S
notes: as for B2
B6: F1.257.3 (antibody, human IgG1, kappa, V domains shown)
VH: QVQLQQSGPELARPGASVKLSCKASGYTFTSYGISWVKQRTGQDLEWIGEIYPKLGTTYYNEKFKDKATLTTDRSSSTAYMALRSLTSEDSAVYFCACPHYYATRGGDYWGQGTTLTVSS
VL: EIVLTQSPATLSVTPGDSVTFSCRASQSISNHLHWYQQKSHESPRLLIRYASQSISGIPSRFSGSGSGTDFTLSLSSVETEDFGVYFCQQSHSWPYTFGGGTKLEIAR
notes: as for B1
B7: F1.60.9 (antibody, human IgG1, kappa, V domains shown)
VH: QVQLKESGPGLVAPSQSLSITCTVSGLSLNNYGVSWVRQPPGKGLEWLGVIWGDGSTNYHSALISRLSISKDNSKSQVFLKLNSLHTDDTATYYCAINWGDYWGQGTTLIVSS
VL: DIKMTQSPSSMNASLGERVTITCKASQDINSYLSWFQQKPGKSPKILIYRANRLIDGVPSRFSGSGSGQDYSLTISSLEYEDMGIYYCLQYGVFPLTFGAGTKLELKR
notes: as for B1
B8: F1.245.2 (antibody, human IgG1, kappa, V domains shown)
VH: EVQLQQSGAELVKPGASVKLSCTGSGFNIKDYYIHWVKQRTEQGLEWMGRIDPEDGETEYAPKFQDEATITSDTSSNTAYLQLSSLTYEDTAVYYCAREAAGYFYRGSSYGYFDVWGTGTTVTVSS
VL: DFQMTQTTSFLSASLGDRVTISCSASQDISNYLNWYQQKPDGTVKLLIYYTSSLHSGVPSRFSGSGSGTDYSLTISNLEPEDIATYYCQQYSMLPYTFGGGTKLEMER
notes: as for B1

In the first test the target is T1, monkey CD22 (full length, on HEK293T …). Put plainly: FACS on HEK293T-monkey CD22 cells. From the text:
The required cells were scale-up cultured in a T-75 cell culture flask to the logarithmic growth phase. For the adherent cell CHO-K1, the medium was aspirated, the cells were washed 2 times with PBS buffer, and then digested with trypsin. After the digestion was terminated, the cells were washed 2 times with PBS buffer. For suspension cell Raji, the medium supernatant was directly centrifuged and discarded, and the cell pellet was washed 2 times with PBS. After counting the cells in the previous step, the cell pellet was resuspended with [PBS+2% (w/w) BSA] blocking solution to 2×10⁶ cells/ml, and added to a 96-well FACS reaction plate at 50 μl/well, and then the chimeric antibody test sample was added at 50 μl/well, and incubated on ice for 2 hours. The mixture was centrifuged and washed 3 times with PBS buffer, Alexa Flour 488-labeled secondary antibody (purchased from Invitrogen, catalog number: A-11013) was added at 50 μl/well, and incubated on ice for 1 hour. The obtained mixture was centrifuged and washed 5 times with PBS, and FACS (FACS Canto™, purchased from BD Company) was used for detection and result analysis. Data analysis was performed by software (CellQuest) to obtain the mean fluorescence density (MFI)of the cells. And then software (GraphPad Prism8) was used for analysis, data fitting, and EC50 value calculation. […]
As for B1, the binding result is listed as “no binding”. For B2, the binding result was “no binding”.

Another test shares this target. Put plainly: FACS, HEK293T-monkey CD22 cells (293T as parent cells). From the text:
The required cells were scale-up cultured in a T-75 cell culture flask to the logarithmic growth phase. For the adherent cell CHO-K1, the medium was aspirated, the cells were washed 2 times with PBS buffer, and then digested with trypsin. After the digestion was terminated, the cells were washed 2 times with PBS buffer. For suspension cell Raji, the medium supernatant was directly centrifuged and discarded, and the cell pellet was washed 2 times with PBS. After counting the cells in the previous step, the cell pellet was resuspended with [PBS+2% (w/w) BSA] blocking solution to 2×10⁶ cells/ml, and added to a 96-well FACS reaction plate at 50 μl/well, and then the chimeric antibody test sample was added at 50 μl/well, and incubated on ice for 2 hours. The mixture was centrifuged and washed 3 times with PBS buffer, Alexa Flour 488-labeled secondary antibody (purchased from Invitrogen, catalog number: A-11013) was added at 50 μl/well, and incubated on ice for 1 hour. The obtained mixture was centrifuged and washed 5 times with PBS, and FACS (FACS Canto™, purchased from BD Company) was used for detection and result analysis. Data analysis was performed by software (CellQuest) to obtain the mean fluorescence density (MFI)of the cells. And then software (GraphPad Prism8) was used for analysis, data fitting, and EC50 value calculation. […] The same method was used to detect the binding of the chimeric antibodies to endogenous CD22-negative cell MoLT4 cells (purchased from ATCC, CRL-1582) and CHO-K1 cells.
HEK293T-monkey CD22 cells were subjected to FACS detection and data analysis according to the method in Example 5.2.
On the technique in general: A flow cytometer gives signals particle by particle.
As to B3, the binding result was “no binding (tested: 10 nM)”. For B4, the binding result is given as “no binding (tested: 10 nM)”. As for B5, the binding result is “no binding (tested: 10 nM)”.

On to B6, for which the binding result was “no binding (tested: 10 nM)”.

With B7, the binding result is reported as “no binding (tested: 10 nM)”. The same measure, in the same setting: the entry for B8 is “no binding (tested: 10 nM)”.
